Numbered stars: 1 amine (or outer) side, 2 acyl side, 3 side chain; on linkers, the order of the positions; unused ones are H or OH. Square brackets hold non-standard residues; d marks the D form. * marks the point of attachment. AAsp = aza-Asp, O=C(N(CC(=O)[*:3])N[*:1])[*:2]; CH═CH‑CON(CH3)CH2Ph = CN(Cc1ccccc1)C(=O)/C=C/*; CH:CH‑COOEt = CCOC(=O)/C=C/*; Cbz = O=C(OCc1ccccc1)*
T1: Caspase-2, P42575
T1 chain: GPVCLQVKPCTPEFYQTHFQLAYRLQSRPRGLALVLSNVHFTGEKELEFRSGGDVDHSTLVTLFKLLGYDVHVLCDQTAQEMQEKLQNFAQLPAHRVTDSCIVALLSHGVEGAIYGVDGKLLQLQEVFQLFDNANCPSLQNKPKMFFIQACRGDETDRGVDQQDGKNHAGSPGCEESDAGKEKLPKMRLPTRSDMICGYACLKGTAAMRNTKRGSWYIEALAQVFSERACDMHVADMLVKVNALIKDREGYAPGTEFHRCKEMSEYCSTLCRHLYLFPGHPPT

T2: Caspase-3, P42574
T2 chain: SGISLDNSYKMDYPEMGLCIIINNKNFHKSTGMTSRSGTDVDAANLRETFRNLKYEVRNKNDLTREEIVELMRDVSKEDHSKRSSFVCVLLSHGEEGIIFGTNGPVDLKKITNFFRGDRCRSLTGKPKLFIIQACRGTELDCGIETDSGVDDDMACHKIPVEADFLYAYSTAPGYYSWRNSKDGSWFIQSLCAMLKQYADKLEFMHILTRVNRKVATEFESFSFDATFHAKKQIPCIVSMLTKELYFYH

T3: Caspase-8, Q14790
T3 chain: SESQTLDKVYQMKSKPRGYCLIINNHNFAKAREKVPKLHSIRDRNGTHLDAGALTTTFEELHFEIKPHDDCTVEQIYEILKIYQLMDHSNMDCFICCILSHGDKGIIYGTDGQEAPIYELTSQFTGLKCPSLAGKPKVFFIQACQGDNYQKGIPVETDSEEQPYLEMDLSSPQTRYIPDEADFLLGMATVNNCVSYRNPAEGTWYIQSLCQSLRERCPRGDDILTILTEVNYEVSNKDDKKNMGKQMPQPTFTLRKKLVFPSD

T4: Caspase-9, P55211
T4 chain: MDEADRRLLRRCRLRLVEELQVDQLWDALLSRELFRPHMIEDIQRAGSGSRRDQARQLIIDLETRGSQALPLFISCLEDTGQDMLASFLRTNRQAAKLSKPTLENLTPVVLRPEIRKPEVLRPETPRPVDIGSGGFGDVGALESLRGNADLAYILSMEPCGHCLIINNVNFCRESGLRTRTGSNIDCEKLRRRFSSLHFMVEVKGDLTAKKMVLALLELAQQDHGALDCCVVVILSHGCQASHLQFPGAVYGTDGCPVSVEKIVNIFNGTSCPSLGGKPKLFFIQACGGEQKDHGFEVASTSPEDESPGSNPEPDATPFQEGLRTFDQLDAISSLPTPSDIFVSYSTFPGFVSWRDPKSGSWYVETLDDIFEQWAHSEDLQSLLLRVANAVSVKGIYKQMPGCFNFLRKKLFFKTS

T5: Caspase-7, P55210
T5 chain: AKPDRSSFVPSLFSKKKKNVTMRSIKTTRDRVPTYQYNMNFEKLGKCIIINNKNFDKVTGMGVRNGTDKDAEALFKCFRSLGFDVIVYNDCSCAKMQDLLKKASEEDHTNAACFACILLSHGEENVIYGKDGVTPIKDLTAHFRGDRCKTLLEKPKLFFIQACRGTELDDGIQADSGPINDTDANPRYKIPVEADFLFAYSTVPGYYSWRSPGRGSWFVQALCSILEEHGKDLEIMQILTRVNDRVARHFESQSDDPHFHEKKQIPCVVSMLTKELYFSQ

T6: Caspase-10, Q92851
T6 chain: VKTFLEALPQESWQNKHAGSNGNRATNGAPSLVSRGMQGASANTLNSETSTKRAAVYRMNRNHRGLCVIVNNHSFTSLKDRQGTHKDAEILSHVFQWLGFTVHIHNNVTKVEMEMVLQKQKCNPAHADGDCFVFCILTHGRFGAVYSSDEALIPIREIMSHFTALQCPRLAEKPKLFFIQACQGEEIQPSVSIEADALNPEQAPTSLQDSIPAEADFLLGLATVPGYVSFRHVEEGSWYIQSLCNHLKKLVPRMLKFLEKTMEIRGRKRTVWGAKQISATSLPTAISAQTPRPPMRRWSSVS

T7: Caspase-6, P55212
T7 chain: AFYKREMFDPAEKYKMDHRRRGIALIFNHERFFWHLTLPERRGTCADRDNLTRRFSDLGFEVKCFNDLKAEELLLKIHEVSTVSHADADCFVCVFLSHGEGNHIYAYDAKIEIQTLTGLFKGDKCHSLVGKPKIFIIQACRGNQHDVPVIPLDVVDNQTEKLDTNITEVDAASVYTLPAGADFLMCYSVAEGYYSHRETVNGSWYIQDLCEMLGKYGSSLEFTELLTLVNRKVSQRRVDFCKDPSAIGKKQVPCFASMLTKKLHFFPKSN

T8: calpain I from porcine erythrocytes (porcine), P35750
T8 chain: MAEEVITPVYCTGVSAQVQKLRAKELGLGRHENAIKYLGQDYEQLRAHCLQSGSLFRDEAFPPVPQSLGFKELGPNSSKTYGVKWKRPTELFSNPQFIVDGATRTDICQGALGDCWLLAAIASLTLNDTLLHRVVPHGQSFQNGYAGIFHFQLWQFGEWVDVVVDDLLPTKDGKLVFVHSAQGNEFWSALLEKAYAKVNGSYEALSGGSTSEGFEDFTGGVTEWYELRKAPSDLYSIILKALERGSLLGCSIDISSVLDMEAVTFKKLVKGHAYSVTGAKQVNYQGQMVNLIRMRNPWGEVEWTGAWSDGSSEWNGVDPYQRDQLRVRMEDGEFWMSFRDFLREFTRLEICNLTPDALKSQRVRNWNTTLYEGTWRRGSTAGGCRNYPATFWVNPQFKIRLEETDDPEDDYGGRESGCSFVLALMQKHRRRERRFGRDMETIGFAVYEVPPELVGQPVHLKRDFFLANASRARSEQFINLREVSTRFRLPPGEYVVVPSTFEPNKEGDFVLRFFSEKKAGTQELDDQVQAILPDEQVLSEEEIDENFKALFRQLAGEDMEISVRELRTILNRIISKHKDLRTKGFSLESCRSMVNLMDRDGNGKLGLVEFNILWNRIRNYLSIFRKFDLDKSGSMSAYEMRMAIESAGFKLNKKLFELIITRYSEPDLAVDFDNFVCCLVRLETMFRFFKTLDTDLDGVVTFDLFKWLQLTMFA

T9: Caspase-3 (UniProt P42574)
T9 sequence (looked up): T2 chain

T10: Caspase-6 (UniProt P55212)
T10 sequence (looked up): T7 chain

T11: Caspase-10 (UniProt Q92851)
T11 sequence (looked up): T6 chain

T12: Caspase-2 (UniProt P42575)
T12 sequence (looked up): T1 chain

T13: Caspase-7 (UniProt P55210)
T13 sequence (looked up): T5 chain

B1: Cbz-Val-Glu-Val-AAsp-CH═CH-COOEt (peptide)
peptide: Cbz-VEV[AAsp]-{CH:CH‑COOEt}
SMILES: CCOC(=O)/C=C/C(=O)N(CC(=O)O)NC(=O)[C@@H](NC(=O)[C@H](CCC(=O)O)NC(=O)[C@@H](NC(=O)OCc1ccccc1)C(C)C)C(C)C
B2: Cbz-Ile-Glu-Thr-AAsp-CH═CH-CON(CH3)CH2Ph (peptide)
peptide: Cbz-IET[AAsp]-{CH═CH‑CON(CH3)CH2Ph}
SMILES: CC[C@H](C)[C@H](NC(=O)OCc1ccccc1)C(=O)N[C@@H](CCC(=O)O)C(=O)N[C@H](C(=O)NN(CC(=O)O)C(=O)/C=C/C(=O)N(C)Cc1ccccc1)[C@@H](C)O

Target: T1, Caspase-2, P42575
Assay: cell-based or functional assay

Row | k2 [M⁻¹ s⁻¹] | Binder
1 | 2640 | DEVD (modifications not checked) [Cbz-Asp-Glu-Val-AAsp-CH═CH-COOEt (trans)]

Target: T2, Caspase-3, P42574
Assay: cell-based or functional assay

Row | k2 [M⁻¹ s⁻¹] | Binder
2 | 5560 | LETD (modifications not checked) [Cbz-Leu-Glu-Thr-AAsp-CH═CH-COOEt]
3 | 1.75e+06 | DEVD (modifications not checked) [Cbz-Asp-Glu-Val-AAsp-CH═CH-CONHCH2Ph]
4 | 1.7e+06 | DEVD (modifications not checked) [Cbz-Asp-Glu-Val-AAsp-CH═CH-COOCH2Ph]
5 | 2.13e+06 | DEVD (modifications not checked) [Cbz-Asp-Glu-Val-AAsp-CH═CH-COOEt (trans)]

Target: T3, Caspase-8, Q14790
Assay: cell-based or functional assay

Row | k2 [M⁻¹ s⁻¹] | Binder
6 | 237000 | LETD (modifications not checked) [Cbz-Leu-Glu-Thr-AAsp-CH═CH-COOEt]
7 | 78200 | DEVD (modifications not checked) [Cbz-Asp-Glu-Val-AAsp-CH═CH-CONHCH2Ph]
8 | 121000 | DEVD (modifications not checked) [Cbz-Asp-Glu-Val-AAsp-CH═CH-COOCH2Ph]
9 | 273000 | DEVD (modifications not checked) [Cbz-Asp-Glu-Val-AAsp-CH═CH-COOEt (trans)]

Target: T4, Caspase-9, P55211
Assay: cell-based or functional assay

Row | k2 [M⁻¹ s⁻¹] | Binder
10 | 37 | LETD (modifications not checked) [Cbz-Leu-Glu-Thr-AAsp-CH═CH-COOEt]
11 | 2010 | DEVD (modifications not checked) [Cbz-Asp-Glu-Val-AAsp-CH═CH-CONHCH2Ph]

The binders below were run against Cathepsin B (assay: cell-based or functional assay).

Row | k2 [M⁻¹ s⁻¹] | Binder
12 | < 10 | LETD (modifications not checked) [Cbz-Leu-Glu-Thr-AAsp-CH═CH-COOEt]

Target: T5, Caspase-7, P55210
Assay: cell-based or functional assay

Row | k2 [M⁻¹ s⁻¹] | Binder
13 | 249000 | DEVD (modifications not checked) [Cbz-Asp-Glu-Val-AAsp-CH═CH-CONHCH2Ph]
14 | 114000 | DEVD (modifications not checked) [Cbz-Asp-Glu-Val-AAsp-CH═CH-COOCH2Ph]
15 | 239000 | DEVD (modifications not checked) [Cbz-Asp-Glu-Val-AAsp-CH═CH-COOEt (trans)]

Target: T6, Caspase-10, Q92851
Assay: cell-based or functional assay

Row | k2 [M⁻¹ s⁻¹] | Binder
16 | 19400 | DEVD (modifications not checked) [Cbz-Asp-Glu-Val-AAsp-CH═CH-CONHCH2Ph]
17 | 28300 | DEVD (modifications not checked) [Cbz-Asp-Glu-Val-AAsp-CH═CH-COOCH2Ph]
18 | 49900 | DEVD (modifications not checked) [Cbz-Asp-Glu-Val-AAsp-CH═CH-COOEt (trans)]

Target: T7, Caspase-6, P55212
Assay: cell-based or functional assay

Row | k2 [M⁻¹ s⁻¹] | Binder
19 | 18700 | LETD (modifications not checked) [Cbz-Leu-Glu-Thr-AAsp-CH═CH-COOEt]
20 | 3210 | DEVD (modifications not checked) [Cbz-Asp-Glu-Val-AAsp-CH═CH-CONHCH2Ph]
21 | 8470 | DEVD (modifications not checked) [Cbz-Asp-Glu-Val-AAsp-CH═CH-COOCH2Ph]
22 | 35600 | DEVD (modifications not checked) [Cbz-Asp-Glu-Val-AAsp-CH═CH-COOEt (trans)]

Target: T8, calpain I from porcine erythrocytes …
Assay: cell-based or functional assay

Row | k2 [M⁻¹ s⁻¹] | Binder
23 | < 10 | LETD (modifications not checked) [Cbz-Leu-Glu-Thr-AAsp-CH═CH-COOEt]

These binders were tested against Caspase-9 (UniProt P55211) (assay: cell-based or functional assay).

Row | k2 [M⁻¹ s⁻¹] | Binder
24 | 340 | B1
25 | 845 | B2

What follows are binders tested against T9, Caspase-3 (assay: cell-based or functional assay).

Row | k2 [M⁻¹ s⁻¹] | Binder
26 | 41200 | B1
27 | 6000 | B2

What follows are binders tested against T10, Caspase-6 (assay: cell-based or functional assay).

Row | k2 [M⁻¹ s⁻¹] | Binder
28 | 83600 | B1
29 | 45900 | B2

The binders below were run against T11, Caspase-10 (assay: cell-based or functional assay).

Row | k2 [M⁻¹ s⁻¹] | Binder
30 | 6600 | B1
31 | 8500 | B2

Each binder was assayed against T12, Caspase-2 (assay: cell-based or functional assay).

Row | k2 [M⁻¹ s⁻¹] | Binder
32 | 115 | B1
33 | 95 | B2

Each binder was assayed against Caspase-8 (UniProt Q14790) (assay: cell-based or functional assay).

Row | k2 [M⁻¹ s⁻¹] | Binder
34 | 176000 | B1
35 | 59700 | B2

Each binder was assayed against T13, Caspase-7 (assay: cell-based or functional assay).

Row | k2 [M⁻¹ s⁻¹] | Binder
36 | 3650 | B1
37 | 390 | B2

Source: patent publication US20050256058A1
